Source: paper PMC4533223, “Structures of CD6 and Its Ligand CD166 Give Insight into Their Interaction” (Structure(London, England:1993), 2015)
Read-outs that look alike come from different tables or passages of the source. Values belong to the binder of their own block, whether it stands above or below them.

Key:
[1] = target: the molecule itself; assay: native MS; each protein alone at 20 μM; buffer exchanged into 250 mM ammonium acetate pH 7.6; dimer to monomers
[2] = target: T1, human CD6 domains 1-3 plus stalk fused to rat CD4 domains 3 and 4 (CD6 d1-3S, wild type, S351) (human, UniProt P30203 18-402, biotin on the tag (immobilisation to streptavidin, Figure S1)); assay: SPR; BIAcore 3000; CD6-CD4d3+4 chimeras (d1-3S, d2-3S, d3S) immobilised via the biotin tag to streptavidin, rat CD4 d3+4 in the control flow cell; soluble CD166 VVC injected, top 1.0 μM plus nine two-fold dilutions; 37 °C, HBS-EP, 20 μl/min; equilibrium binding, Langmuir 1:1 fit; settings: one partner purified
T1 construct: also called CD6-CD4d3+4; CD6 WT; not shown: rat CD4 domains 3 and 4 (CD4d3+4), C-terminal, kept
T1 sequence (looked up): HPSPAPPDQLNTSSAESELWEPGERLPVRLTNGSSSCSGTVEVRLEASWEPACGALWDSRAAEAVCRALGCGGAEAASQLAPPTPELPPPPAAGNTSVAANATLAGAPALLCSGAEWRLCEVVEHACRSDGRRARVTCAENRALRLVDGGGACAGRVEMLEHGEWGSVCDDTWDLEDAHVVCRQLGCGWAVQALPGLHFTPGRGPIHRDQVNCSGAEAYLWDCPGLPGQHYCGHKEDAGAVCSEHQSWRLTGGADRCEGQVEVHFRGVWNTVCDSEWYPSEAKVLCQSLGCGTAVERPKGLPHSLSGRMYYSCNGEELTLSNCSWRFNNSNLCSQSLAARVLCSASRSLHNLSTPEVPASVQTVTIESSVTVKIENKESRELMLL

[3] = target: T1, human CD6 domains 1-3 plus stalk fused …; assay: as above; settings: one partner purified; remark: listed apart in the source
[4] = target: human CD6 domain 3 plus stalk fused to rat CD4 domains 3 and 4 (CD6 d3S) (human) (UniProt P30203); assay: as above
[5] = target: human CD6 domains 2-3 plus stalk fused to rat CD4 domains 3 and 4 (CD6 d2-3S) (human) (UniProt P30203); assay: as above
[6] = target: the molecule itself; assay: SEC-MALS; Superdex200 10/30 in 50 mM Tris.HCl, pH 7.5, 150 mM NaCl, 0.4 ml/min; CD6 alone 39 µM, CD166 VVC alone 28 µM, equimolar mixture 27 µM each; samples diluted approximately 10-fold on the column
[7] = target: human CD6 domain 3 plus stalk fused to rat CD4 domains 3 and 4 (CD6 d3S) (human) (UniProt P30203); assay: SPR; BIAcore 3000; CD6-CD4d3+4 chimeras (d1-3S, d2-3S, d3S) immobilised via the biotin tag to streptavidin, rat CD4 d3+4 in the control flow cell; soluble CD166 VVC injected, top 1.0 μM plus nine two-fold dilutions; 37 °C, HBS-EP, 20 μl/min; equilibrium binding, Langmuir 1:1 fit; remark: listed apart in the source
[8] = target: human CD6 domains 2-3 plus stalk fused to rat CD4 domains 3 and 4 (CD6 d2-3S) (human) (UniProt P30203); assay: as above; remark: listed apart in the source
[9] = target: T2, human CD6-CD4d3+4 chimera, mutant S351A (human, UniProt P30203 18-402, S351A); assay: SPR; BIAcore 3000; CD6 S351, S351A and S351N (CD4d3+4 chimeras) immobilised via OX68 mAb, rat CD4 d3+4 in the control flow cell; soluble CD166 VVC injected, top 2.5 μM plus nine two-fold dilutions; 25 °C, HBS-EP, 20 μl/min; KD from equilibrium binding (Langmuir 1:1), koff from one phase exponential decay; settings: one partner purified
T2 construct: human CD6 extracellular region with the membrane proximal stalk, as Dm2; also called CD6 S351A; source: mutant made with a Q5 SDM kit; not shown: rat CD4 domains 3 and 4 (CD4d3+4), C-terminal, kept
T2 sequence (looked up): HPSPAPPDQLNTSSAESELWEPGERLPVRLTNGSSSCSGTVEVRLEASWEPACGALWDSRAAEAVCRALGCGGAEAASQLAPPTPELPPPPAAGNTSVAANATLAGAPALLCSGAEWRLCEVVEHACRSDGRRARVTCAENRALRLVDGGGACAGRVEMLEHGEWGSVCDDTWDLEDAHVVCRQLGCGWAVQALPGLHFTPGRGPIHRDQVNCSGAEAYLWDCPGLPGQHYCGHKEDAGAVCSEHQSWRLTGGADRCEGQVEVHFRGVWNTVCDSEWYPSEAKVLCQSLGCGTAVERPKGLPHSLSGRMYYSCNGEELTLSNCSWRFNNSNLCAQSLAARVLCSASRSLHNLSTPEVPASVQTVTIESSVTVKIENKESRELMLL

[10] = target: T3, human CD6-CD4d3+4 chimera, SNP variant S351N (human, UniProt P30203 18-402, S351N, N-linked glycosylation at N351 (shown by mass spectrometry)); assay: as above; settings: one partner purified
T3 construct: human CD6 extracellular region with the membrane proximal stalk, as Dm2; S351N is a SNP found in 10% of the genomes analyzed; The 293T cells and the purification with OX68-Sepharose are told for the sample used in the glycosylation mass spectrometry; also called CD6 S351N; CD6-CD4d3+4 S351N; source: transiently expressed in 293T cells; not shown: rat CD4 domains 3 and 4 (CD4d3+4), C-terminal, kept
T3 sequence (looked up): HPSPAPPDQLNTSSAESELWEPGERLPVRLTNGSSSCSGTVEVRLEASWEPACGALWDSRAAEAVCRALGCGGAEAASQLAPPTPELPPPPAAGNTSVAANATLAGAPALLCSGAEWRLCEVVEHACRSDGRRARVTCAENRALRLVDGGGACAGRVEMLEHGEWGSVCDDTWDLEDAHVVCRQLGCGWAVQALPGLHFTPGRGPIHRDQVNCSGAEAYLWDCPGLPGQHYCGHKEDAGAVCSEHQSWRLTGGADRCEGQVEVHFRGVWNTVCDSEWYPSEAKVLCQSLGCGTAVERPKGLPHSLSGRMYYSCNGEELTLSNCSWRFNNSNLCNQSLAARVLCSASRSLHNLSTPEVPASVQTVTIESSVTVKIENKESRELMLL

[11] = target: T1, human CD6 domains 1-3 plus stalk fused …; assay: as above; settings: one partner purified
[12] = target: T2, human CD6-CD4d3+4 chimera, mutant S351A; assay: as above; settings: one partner purified; remark: listed apart in the source
[13] = target: T3, human CD6-CD4d3+4 chimera, SNP variant …; assay: as above; settings: one partner purified; remark: listed apart in the source
[14] = target: T1, human CD6 domains 1-3 plus stalk fused …; assay: as above; settings: one partner purified; remark: listed apart in the source
[15] = target: T4, human CD6 S351N (SNP variant) (human, UniProt P30203 18-668, S351N, N-linked glycan at N351; N28, N49, N229 glycosylated, N339 appears partially glycosylated); assay: SPR; soluble CD166 VVC over streptavidin-immobilized chimeric CD6 forms and variants; settings: both partners purified
T4 construct: human CD6 with the SNP S351N, found in 10% of the genomes analyzed; made by mutagenesis; Probably the same chimeric, streptavidin-immobilized format as m3 (surmised); construct in the supplement
T4 sequence (looked up): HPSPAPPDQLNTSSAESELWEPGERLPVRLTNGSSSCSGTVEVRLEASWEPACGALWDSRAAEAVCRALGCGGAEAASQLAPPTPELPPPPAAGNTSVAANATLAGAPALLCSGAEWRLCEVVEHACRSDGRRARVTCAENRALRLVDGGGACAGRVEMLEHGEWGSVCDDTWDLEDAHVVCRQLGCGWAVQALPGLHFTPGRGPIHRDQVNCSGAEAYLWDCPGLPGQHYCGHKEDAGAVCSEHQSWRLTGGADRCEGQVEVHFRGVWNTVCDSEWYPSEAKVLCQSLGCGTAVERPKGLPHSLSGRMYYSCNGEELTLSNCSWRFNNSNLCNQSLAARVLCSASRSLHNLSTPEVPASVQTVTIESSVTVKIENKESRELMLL

B1: human CD6 SRCR domains 1-3, His-tagged (residues 1-364) (domain or fragment, UniProt P30203 18-364, looked up)
chain: HPSPAPPDQLNTSSAESELWEPGERLPVRLTNGSSSCSGTVEVRLEASWEPACGALWDSRAAEAVCRALGCGGAEAASQLAPPTPELPPPPAAGNTSVAANATLAGAPALLCSGAEWRLCEVVEHACRSDGRRARVTCAENRALRLVDGGGACAGRVEMLEHGEWGSVCDDTWDLEDAHVVCRQLGCGWAVQALPGLHFTPGRGPIHRDQVNCSGAEAYLWDCPGLPGQHYCGHKEDAGAVCSEHQSWRLTGGADRCEGQVEVHFRGVWNTVCDSEWYPSEAKVLCQSLGCGTAVERPKGLPHSLSGRMYYSCNGEELTLSNCSWRFNNSNLCSQSLAARVLCSASR
modifications: N-linked glycans (endoglycosidase H sensitive; heterogeneity in mass caused by glycosylation; GlcNAc seen at N229 in the crystal)
notes: signal peptide in the construct; Deglycosylated with EndoHf only for crystallization; source: purified (NiNTA, Superdex200)
stoichiometry N [1]: 2

Kd [2]: 90 nM
Kd [3]: 77 nM
Kd [4]: 86 nM
Kd [5]: 81 nM
Kd [7]: 100 nM
Kd [8]: 90 nM
Kd [9]: 60 nM
koff [9]: 0.05 s⁻¹
Kd [10]: 500 nM
koff [10]: 0.4 s⁻¹
Kd [11]: 90 nM
koff [11]: 0.07 s⁻¹
Kd [12]: 83 nM
koff [12]: 0.049 s⁻¹
Kd [13]: 599 nM
koff [13]: 0.337 s⁻¹
Kd [14]: 120 nM
koff [14]: 0.072 s⁻¹
B2: soluble recombinant human CD166 VVC (IgSF domains 1-3, two V-like domains and one C-like domain), His-tagged (domain or fragment, UniProt Q13740 28-335, looked up)
chain: WYTVNSAYGDTIIIPCRLDVPQNLMFGKWKYEKPDGSPVFIAFRSSTKKSVQYDDVPEYKDRLNLSENYTLSISNARISDEKRFVCMLVTEDNVFEAPTIVKVFKQPSKPEIVSKALFLETEQLKKLGDCISEDSYPDGNITWYRNGKVLHPLEGAVVIIFKKEMDPVTQLYTMTSTLEYKTTKADIQMPFTCSVTYYGPSGQKTIHSEQAVFDIYYPTEQVTIQVLPPKNAIKEGDNITLKCLGNGNPPPEEFLFYLPGQPEGIRSSNTYTLTDVRRNATGDYKCSLIDKKSMIASTAITVHYLDLS
notes: signal peptide in the construct; human CD166 (ALCAM) residues 1-335 with the native leader; Deglycosylated with EndoHf only for crystallization; also called ALCAM; source: purified (NiNTA, Superdex200)
stoichiometry N [6]: 2

fold weaker affinity than for CD6 S351 [15]: 10 fold
B3: human CD166 IgSF domains 1-3 (CD166 VVC), His-tagged (residues 1-335) (domain or fragment, UniProt Q13740 28-335, looked up)
chain: WYTVNSAYGDTIIIPCRLDVPQNLMFGKWKYEKPDGSPVFIAFRSSTKKSVQYDDVPEYKDRLNLSENYTLSISNARISDEKRFVCMLVTEDNVFEAPTIVKVFKQPSKPEIVSKALFLETEQLKKLGDCISEDSYPDGNITWYRNGKVLHPLEGAVVIIFKKEMDPVTQLYTMTSTLEYKTTKADIQMPFTCSVTYYGPSGQKTIHSEQAVFDIYYPTEQVTIQVLPPKNAIKEGDNITLKCLGNGNPPPEEFLFYLPGQPEGIRSSNTYTLTDVRRNATGDYKCSLIDKKSMIASTAITVHYLDLS
modifications: N-linked glycans (endoglycosidase H sensitive; heterogeneity in mass caused by glycosylation)
notes: signal peptide in the construct; In the crystal (PDB 5a2f) only domains 1 and 2 were resolved; the third domain was probably cleaved off before crystal growth; protein deglycosylated with EndoHf for crystallization; also called ALCAM; source: purified (NiNTA, Superdex200)
stoichiometry N [1]: 2
